From patent US20240109859

Molecular target: T1, IRF3 wild-type (UniProt Q14653 Q14653:1-427)
T1 sequence: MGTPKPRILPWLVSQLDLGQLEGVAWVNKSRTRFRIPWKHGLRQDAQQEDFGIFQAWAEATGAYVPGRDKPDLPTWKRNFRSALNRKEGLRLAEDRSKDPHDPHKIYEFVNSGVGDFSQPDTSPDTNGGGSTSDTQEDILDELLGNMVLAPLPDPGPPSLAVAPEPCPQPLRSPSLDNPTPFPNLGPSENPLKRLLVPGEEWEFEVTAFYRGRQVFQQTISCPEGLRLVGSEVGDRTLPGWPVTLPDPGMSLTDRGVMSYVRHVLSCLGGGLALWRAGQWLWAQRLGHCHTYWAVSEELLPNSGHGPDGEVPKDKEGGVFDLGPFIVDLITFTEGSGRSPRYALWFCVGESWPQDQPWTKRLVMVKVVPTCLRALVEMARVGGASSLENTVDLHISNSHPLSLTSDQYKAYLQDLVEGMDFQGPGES
Experiment: EMSA; 2.5 nM probe, 10 mM Tris pH 7.5, 50 mM NaCl, 2 mM DTT, room temperature 45 min; cold probe competition
Settings: tags: Flag, expressed in HEK293T; label: 32P
Experimental: Electrophoresis Mobility Shift Assay (EMSA). Flag-IRF3-WT and Flag-IRF3-N85D were purified from HEK293T cells. Binding reactions were carried out in 20 μl volumes containing: 2.5 nM P32 labeled DNA probe targeting IFN-β promoter (forward: […] (SEQ ID NO: 41); reverse: […]) (SEQ ID NO: 42); 10 mM Tris pH 7.5; 50 mM NaCl; 2 mM DTT and indicated purified Flag-IRF3-WT or Flag-IRF3-N85D. Unlabeled probe (cold probe) was used for competition assay. Reactions were incubated at room temperature for 45 min, and resolved in 6% polyacrylamide gels (29:1 crosslinking) with 0.5×TBE running buffer at […] on ice until the loading dye front reached the bottom of the gel. Gels were dried and analyzed using phosphorimaging instrumentation.

B1: IFN-beta promoter probe (dsDNA)
DNA 1: GCACCGCTAACCGAAACCGAAACTGTGC
DNA 2: GCACAGTTTCGGTTTCGGTTAGCGGTGC
B1: binds.
